Measurements from US7432342 (dated 2008).
Ends that are not written are not given here.

B1: truncation SEQ 90 (peptide)
chain: VQGNTDEAQEELAWKIAKM
B2: truncation SEQ 96 (peptide)
chain: VQGNTDEAQEELA
B3: truncation SEQ 91 (peptide)
chain: VQGNTDEAQEELAWKIAK
B4: truncation SEQ 93 (peptide)
chain: VQGNTDEAQEELAWKI
B5: truncation SEQ 92 (peptide)
chain: VQGNTDEAQEELAWKIA
B6: truncation SEQ 98 (peptide)
chain: VQGNTDEAQEE
B7: truncation SEQ 99 (peptide)
chain: VQGNTDEAQE
B8: truncation SEQ 97 (peptide)
chain: VQGNTDEAQEEL
B9: truncation SEQ 89 (peptide)
chain: VQGNTDEAQEELAWKIAKMI
B10: truncation SEQ 94 (peptide)
chain: VQGNTDEAQEELAWK
B11: truncation SEQ 95 (peptide)
chain: VQGNTDEAQEELAW
B12: PV-49 (peptide)
chain: FEELAWKIAKMIISDVFQQC
B13: PV-37 (peptide)
chain: FEELAWKIAKMIWSDVMQQC
B14: PV-47 (peptide)
chain: QEEFAWKIAKMIVSDVFQQC
B15: AKB(RI) PV-38 (peptide)
chain: FEELAWKIAKMIWSDVFQQC
B16: V21W (peptide)
chain: VQGNTDEAQEELAWKIAKMIWSDVMQQC
B17: AKB(dual) WT (peptide)
chain: VQGNTDEAQEELAWKIAKMIVSDVMQQC(tetramethylrhodamine)
B18: PV-48 (peptide)
chain: QEEFAWKIAKMIISDVFQQC
B19: Ac-DLAWKIAKMIVSDVMQQC (peptide)
chain: Ac-DLAWKIAKMIVSDVMQQC
B20: truncation SEQ 12 (peptide)
chain: EELAWKIAK
B21: truncation SEQ 13 (peptide)
chain: ELAWKIA
B22: truncation SEQ 10 (peptide)
chain: AQEELAWKIAKMI
B23: truncation SEQ 8 (peptide)
chain: TDEAQEELAWKIAKMIVSD
B24: truncation SEQ 4 (peptide)
chain: EAQEELAWKIAKMIV
B25: truncation SEQ 9 (peptide)
chain: DEAQEELAWKIAKMIVS
B26: truncation SEQ 11 (peptide)
chain: QEELAWKIAKM
B27: AKB(null) (peptide)
chain: VQGNTDEAQEELAWKIEKMIWSDVMQQC
modifications: also: fluorescently labeled
B28: AKB(RII) (peptide)
chain: VQGNTDEAQEELLWKIAKMIVSDVMQQC
modifications: also: fluorescently labeled
B29: truncation SEQ 88 (peptide)
chain: VQGNTDEAQEELAWKIAKMIV
B30: truncation SEQ 87 (peptide)
chain: VQGNTDEAQEELAWKIAKMIVS
B31: truncation SEQ 86 (peptide)
chain: VQGNTDEAQEELAWKIAKMIVSD
B32: truncation SEQ 77 (peptide)
chain: AWKIAKMIVSDIMQQ
B33: truncation SEQ 80 (peptide)
chain: IAKMIVSDIMQQ
B34: truncation SEQ 79 (peptide)
chain: KIAKMIVSDIMQQ
B35: truncation SEQ 78 (peptide)
chain: WKIAKMIVSDIMQQ
B36: truncation SEQ 76 (peptide)
chain: LAWKIAKMIVSDIMQQ
B37: truncation SEQ 81 (peptide)
chain: AKMIVSDIMQQ
B38: truncation SEQ 82 (peptide)
chain: KMIVSDIMQQ
B39: Ac-27mer Ile (peptide)
chain: Ac-VQGNTDEAQEELAWKIAKMIVSDIMQQ
B40: Ac-27mer Val (peptide)
chain: Ac-VQGNTDEAQEELAWKIAKMIVSDVMQQ-NH2

Target: PKA-RIIα-GFP (UniProt P13861)
Assay: not given

PKA-RIIα-GFP, sequence (P13861 2-404): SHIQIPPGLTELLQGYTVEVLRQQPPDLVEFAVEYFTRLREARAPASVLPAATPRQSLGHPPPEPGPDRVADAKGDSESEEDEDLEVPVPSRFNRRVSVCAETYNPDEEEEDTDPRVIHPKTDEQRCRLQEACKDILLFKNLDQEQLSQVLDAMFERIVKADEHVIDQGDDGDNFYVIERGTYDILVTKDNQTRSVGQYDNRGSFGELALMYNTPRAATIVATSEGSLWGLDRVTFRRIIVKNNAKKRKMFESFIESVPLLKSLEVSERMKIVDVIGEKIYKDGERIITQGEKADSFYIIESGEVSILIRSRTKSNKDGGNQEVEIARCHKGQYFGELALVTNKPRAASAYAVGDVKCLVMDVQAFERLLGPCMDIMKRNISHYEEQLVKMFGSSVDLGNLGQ

binding result	Binder
no binding	B1
no binding	B2
no binding	B3
no binding	B4
no binding	B5
no binding	B6
no binding	B7
no binding	B8
no binding	B9
no binding	B10
no binding	B11

Target: T1, PKA RIα (full-length) (bovine, UniProt P00514)
Assay: FP

T1 sequence (P00514 2-380): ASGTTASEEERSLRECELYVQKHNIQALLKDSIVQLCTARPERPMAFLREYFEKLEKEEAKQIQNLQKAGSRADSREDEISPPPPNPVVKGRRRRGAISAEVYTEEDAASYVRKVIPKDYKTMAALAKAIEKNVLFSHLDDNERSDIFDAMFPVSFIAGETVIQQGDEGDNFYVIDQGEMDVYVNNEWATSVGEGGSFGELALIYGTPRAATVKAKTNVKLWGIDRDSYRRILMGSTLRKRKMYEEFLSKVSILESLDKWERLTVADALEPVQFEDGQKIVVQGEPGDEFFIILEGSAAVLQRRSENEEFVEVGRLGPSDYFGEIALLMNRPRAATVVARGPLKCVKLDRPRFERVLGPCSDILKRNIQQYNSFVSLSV

Kd	Binder
1.1 nM	B12
19 nM	B13
39 nM	B14
5.2 nM	B15
120 nM	B16
48 nM	B17
12 nM	B18
773 nM	B19

Target: PKA-RIα-GFP (UniProt P10644)
Assay: not given

PKA-RIα-GFP, sequence (P10644 whole entry): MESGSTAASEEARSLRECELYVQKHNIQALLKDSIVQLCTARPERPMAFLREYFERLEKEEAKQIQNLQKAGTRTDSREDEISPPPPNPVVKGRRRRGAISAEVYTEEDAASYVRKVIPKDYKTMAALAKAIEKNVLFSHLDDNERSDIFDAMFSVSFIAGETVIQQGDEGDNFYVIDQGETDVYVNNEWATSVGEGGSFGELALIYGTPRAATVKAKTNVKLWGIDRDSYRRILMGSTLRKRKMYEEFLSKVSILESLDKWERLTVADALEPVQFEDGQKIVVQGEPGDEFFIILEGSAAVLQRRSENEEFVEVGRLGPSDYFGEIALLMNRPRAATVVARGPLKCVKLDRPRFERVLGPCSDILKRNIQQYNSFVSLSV

binding result	Binder
no binding	B20
no binding	B21
no binding	B22
no binding	B23
no binding	B24
no binding	B25
no binding	B26

Target: T2, PKA RIIα (full-length) (mouse, UniProt P12367)
Assay: FP

T2 sequence (P12367 2-401): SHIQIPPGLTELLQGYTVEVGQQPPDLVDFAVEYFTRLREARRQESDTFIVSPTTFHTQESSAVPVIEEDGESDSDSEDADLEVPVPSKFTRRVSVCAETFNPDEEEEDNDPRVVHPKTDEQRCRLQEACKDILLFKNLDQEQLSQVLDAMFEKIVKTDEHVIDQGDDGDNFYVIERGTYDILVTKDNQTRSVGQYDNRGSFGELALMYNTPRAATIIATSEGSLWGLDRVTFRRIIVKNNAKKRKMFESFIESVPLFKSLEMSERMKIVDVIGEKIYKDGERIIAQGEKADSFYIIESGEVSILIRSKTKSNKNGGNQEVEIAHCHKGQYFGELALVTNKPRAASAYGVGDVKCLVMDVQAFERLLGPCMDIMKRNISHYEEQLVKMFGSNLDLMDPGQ

Kd	Binder
2.5 nM	B12
150 nM	B13
89 nM	B14
456 nM	B15
83 nM	B16
2.2 nM	B17
124 nM	B18
107 nM	B19

Target: T2, PKA RIIα (full-length)
Assay: FP
Remark: another data set of the same source

Kd	Binder
> 10000 nM	B27
2.7 nM	B28
456 nM	B15
2.2 nM	B17

Target: PKA-RIα-GFP (UniProt P10644)
Assay: not given
Remark: another data set of the same source

binding result	Binder
no binding	B29
no binding	B1
no binding	B30
no binding	B2
no binding	B3
no binding	B4
no binding	B5
no binding	B6
no binding	B7
no binding	B8
no binding	B9
no binding	B10
no binding	B31
no binding	B11

Target: PKA-RIα-GFP (UniProt P10644)
Assay: not given
Remark: another data set of the same source

binding result	Binder
no binding	B32
no binding	B33
no binding	B34
no binding	B35
no binding	B36
no binding	B37
no binding	B38

Target: PKA-RIα-GFP (UniProt P10644)
Assay: SPR

Kd	Binder
860 nM	B39
500 nM	B40

Target: T1, PKA RIα (full-length)
Assay: FP
Remark: another data set of the same source

Kd	Binder
998 nM	B27
2490 nM	B28
5.2 nM	B15
48 nM	B17

Target: PKA-RIIα-GFP (UniProt P13861)
Assay: not given
Remark: another data set of the same source

binding result	Binder
no binding	B33
no binding	B34
no binding	B35
no binding	B37
no binding	B38

Target: PKA-RIIα-GFP (UniProt P13861)
Assay: not given
Remark: another data set of the same source

binding result	Binder
no binding	B20
no binding	B21
no binding	B22
no binding	B26
